# From patent publication US20120121603A1 (THERACLONE SCIENCES, published 2012)
# B1: 23K12 (antibody, V domains shown)
# VH: EVQLVESGGGLVQPGGSLRISCAASGFTVSSNYMSWVRQAPGKGLEWVSVIYSGGSTYYADSVKGRFSFSRDNSKNTVFLQMNSLRAEDTAVYYCARCLSRMRGYGLDVWGQGTTVTVS
# VL: DIQMTQSPSSLSASVGDRVTITCRTSQSISSYLNWYQQKPGKAPKLLIYAASSLQSGVPSRFSGSGSGTDFTLTISGLQPEDFATYYCQQSYSMPAFGQGTKLEIK
# Target: T1, M2 protein expressed on the surface of PR8-infected MDCK cells (Influenza A virus A/Puerto Rico/8/1932 …, UniProt P06821 1-97)
# T1 construct: whole, on cells
# T1 sequence (P06821 whole entry): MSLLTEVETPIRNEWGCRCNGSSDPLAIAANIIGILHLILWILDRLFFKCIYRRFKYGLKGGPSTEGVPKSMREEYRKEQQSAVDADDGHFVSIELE
# Assay: FMAT, crude supernatant on PR8-infected MDCK cells
binder,measurement,value
B1,binding result,binds
